From publication PMC9198058

Key:
[1] = target: Catalytically inactive recombinant S195A thrombin mutant (UniProt P00734); experiment: other fluorescence titration
[2] = target: Nα-fluoresceinated hirugen ([F]-hirugen); experiment: other fluorescence titration

Substance	increase of [F]-hirugen fluorescence on displacement [1]	Kd [2]
Hirugen (54…*LQ65) (peptide)	65%	
Catalytically inactive recombinant S195A thrombin mutant (from UniProt P00734 44-622) (enzyme)		30 nM
